The target in data set [1] is T1, PDGF-BB (UniProt P01127 P01127:82-190). Kind of data set: fluorescence thermal melt in solution; Tm about 55 C unbound to about 65 C bound; 1x PBS, 1 mM MgCl2, 0.1 mg/ml BSA. The settings on record: chain copies: 2 (homodimer, inferred); label: 5' fluorescein, 3' Black Hole Quencher 1. On the procedure:
In one representative experiment, aptamer comprising a competent binding state and a dye pair (fluoresceine and black hole quencher) was measured for their persistence in the changed environment of temperature as described herein. […] PDGF-BB, bovine serum albumine (BSA), magnesium chrolide, and phosphate buffered saline (PBS) all other buffers were ordered from Sigma-Millipore. 41T aptamer at a concentration of either 316 nM, or 100 nM, or 31.6 nM, or 10 nM were mixed with variable concentrations PDGF-BB (from […] dilution factor) in 1× PBS containing 1 mM MgCl₂, and 0.1 mg/ml BSA on white 384 well PCR plate (BioRad) and subjected to the following thermal protocol on BioRad CFX384 qPCR instrument: lid at 95° C., melting curve step from 30° C. to 80° C. with images (FAM/SYBR channel) every 0.5° C., 10 seconds per step. FIG. 5 presents melting curves (left panels) and the first derivative (right panels) of thermal titration experiments. To estimate the relative populations of free aptamers and aptamers bound to the target (% bound), the areas under the curve of the first derivative (dRFU/dT) were integrated for both unbound (left peak with Tₘ˜55° C.) and bound (right peak with Tₘ˜65° C.) peaks. % bound as a function of the target concentration is presented as a dose response in FIG. 6.

The target in data set [2] is T1, PDGF-BB. Kind of data set: surface thermal melt; Tm about 32 C unbound to about 42 C bound; 0.75 mg/mL HSA, 40% DMSO; also bound peak about 55 C with 100 nM in human plasma without DMSO. The settings on record: chain copies: 2 (homodimer, inferred); label: 3' Cy3. On the procedure: (§1) PDGF-BB and PDGF-AA were obtained from R&D Systems (Minneapolis, USA). Human serum albumine (HSA), phosphate buffered saline (PBS) and all other reagents were ordered from Sigma-Millipore. The aptamer was covalently linked to the solid support by spotting 4.5 μL of the 0.25 uM aptamer solution in 1× PBS buffer. The spots were incubated for 10 minutes to allow for surface immobilization and washed with 1× PBS buffer. Solutions with a variable amount of PDGF-BB or PDGF-AA (630 nM to 2 nM 3.16× dilution series or 300 nM to 75 nM 2× dilution series, respectively) and containing 0.75 mg/mL. HSA, 40% DMSO (v/v) were applied to the surface coated with the aptamers and incubated for 5 minutes at room temperature. The temperature was increased to 45° C. by placing the slide on a heating element. The change in fluorescence intensity of the modified aptamer was as a function of temperature was monitored by fluorescence microscope coupled to a CMOS sensor. FIGS. 9A and 10 presents normalized first derivative of the melting curves for PDGF-BB or PDGF-AA titration experiments, respectively. […]

A further data set addresses PDGF-AA (UniProt P04085 P04085:87-211). Kind of data set: surface thermal melt, 75-300 nM PDGF-AA; no binding and no dose response; 0.75 mg/mL HSA, 40% DMSO. The note with it: tags: R&D Systems; chain copies: 2 (homodimer, inferred); label: 3' Cy3. As for the experimental part:
as §1, with “The solid support consisted of coated ITO glass slides functionalized with azido groups (Sikemia, Grabels, France) to form a covalent bond between the DBCO-labeled aptamer and the surface. PDGF-BB and” for “PDGF-BB and”

T1 sequence (P01127 82-190, one chain of several): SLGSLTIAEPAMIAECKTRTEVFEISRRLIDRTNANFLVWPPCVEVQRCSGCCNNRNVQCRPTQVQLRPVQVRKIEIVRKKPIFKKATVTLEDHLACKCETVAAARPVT

B1: 41T aptamer (solution, FIG. 4A) (ssDNA)
DNA: TACTCAGGGCACTGCAAGCAATTGTGGTCCCAATGGGCTGAGTA
Take B1: the binding result with PDGF-BB [1] is given as “binds”.

B2: 41T aptamer (surface-immobilized, FIG. 4B) (ssDNA)
DNA: TTTTTTACTCAGGGCACTGCAAGCAATTGTGGTCCCAATGGGCTGAGTA
modifications: 5' DBCO-TEG via five-thymidine linker, thymine-linked Black Hole Quencher 2
As for B2, the binding result with PDGF-BB [2] is recorded as “binds”; with PDGF-AA, “no binding”.

Values taken from US20250314646, “SYSTEMS AND METHODS FOR ANALYTE DETECTION IN BIOLOGICAL SOLUTIONS” (eGlint, Inc., published 2025).
